Reference: publication PMC6081480, “Monitoring the action of redox-directed cancer therapeutics using a human peroxiredoxin-2-based probe” (Nature Communications, 2018)

B1: human peroxiredoxin-2 (endogenous) (natural protein, human (endogenous in HeLa), UniProt P32119 1-198, looked up)
chain: MASGNARIGKPAPDFKATAVVDGAFKEVKLSDYKGKYVVLFFYPLDFTFVCPTEIIAFSNRAEDFRKLGCEVLGVSVDSQFTHLAWINTPRKEGGLGPLNIPLLADVTRRLSEDYGVLKTDEGIAYRGLFIIDGKGVLRQITVNDLPVGRSVDEALRLVQAFQYTDEHGEVCPAGWKPGSDTIKPNVDDSKEYFSKHN
notes: peroxiredoxin-2 (Prx2), human, endogenous in HeLa cells; monomer band at 21 kDa; the dimer seen on non-reducing SDS-PAGE is linked by a disulfide between the catalytic and the resolving cysteine of two monomers; also called Prx2; endogenous Prx2; source: endogenous, HeLa lysate

Tests used:
[1] = biological target: human Prx2-based FRET probe (Clover-Prx2-mRuby2) (human); assay: non-reducing SDS-PAGE with immunoblot; HeLa cells with or without the probe, treated with H2O2 (also auranofin or piperlongumine); free thiols blocked with 100 mM MMTS; 1% Triton X-100 lysate; SDS-PAGE without beta-mercaptoethanol; blot for Prx2 or GFP; disulfide-linked dimers
[2] = biological target: the molecule itself; assay: as above

Molecule	stoichiometry N [1]	stoichiometry N [2]
human Prx2-based FRET probe (Clover-Prx2-mRuby2)	2	
B1		2
